Reference: paper PMC3562352
Positions count from the first letter of the chain named. Like-named read-outs stand apart in the source and are kept apart here.

How the values were obtained:
Experiment in all cases: fluorescence anisotropy
[1] = biological target: T1, MntR E11K (Bacillus subtilis, UniProt P54512 1-142, E11K)
T1 sequence: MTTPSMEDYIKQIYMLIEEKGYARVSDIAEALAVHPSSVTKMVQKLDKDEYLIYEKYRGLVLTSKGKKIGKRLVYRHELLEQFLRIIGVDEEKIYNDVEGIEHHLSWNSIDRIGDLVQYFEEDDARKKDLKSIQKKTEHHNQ

[2] = biological target: T2, MntR wild-type (Bacillus subtilis, UniProt P54512 1-142)
T2 sequence: T1 sequence with K11E

[3] = biological target: T1, MntR E11K; remark: listed apart in the source
[4] = biological target: T2, MntR wild-type; remark: listed apart in the source

B1: mntH operator 21 bp (dsDNA)
DNA 1: GAGTTTCCTTAAGGCAAATTG
DNA 2: CAATTTGCCTTAAGGAAACTC
- Kd [1]: 2.4 ± 0.1 nM
- Kd [2]: 6.5 ± 0.5 nM
- Kd [3]: 6.5 ± 1.3 nM
- Kd [4]: 5.6 ± 0.8 nM
